Our source for the OD450 values is patent publication US20250320312A1 (OXITOPE PHARMA B V, published 2025).

Test in all cases: scFv ELISA
A general note: An ELISA detects its analyte on a solid surface through an enzyme-linked reagent.

The target of experiment [1] is T1, Peptide 8: Biotin-AEAAAKEAAAKEAAAKEAAAKAAA-Tyr-acid (N-terminal biotin; C-terminal acid).
T1 construct: Control peptide without PC
T1 peptide: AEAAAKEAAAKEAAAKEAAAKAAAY
The procedure, abridged: (§1)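 Bound scFv was read as OD450 after HRP–anti-V5 detection, TMB development and HCl stop. PPE with BSA was incubated 1 h at RT on BSA-blocked wells coated overnight at 4° C. with peptide, or on streptavidin wells loaded 1 h with biotinylated PC-peptides at 1 μg/mL.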

For experiment [2], the target named is T2, Peptide 4: Biotin-AGGGGSGGGGSGGGGSAAA-Tyr-acid (N-terminal biotin; C-terminal acid).
T2 construct: Control peptide without PC
T2 peptide: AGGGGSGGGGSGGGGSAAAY
The method, boiled down: as §1

A further experiment addresses BSA (UniProt P02769).
The target in experiment [3] is Peptide 5: Biotin-…-[Tyr(PC)]-acid.
Experiment [4] deals with Peptide 1: Biotin-…-[Tyr(PC)]-acid.

BSA, sequence (P02769 25-607 limits assumed): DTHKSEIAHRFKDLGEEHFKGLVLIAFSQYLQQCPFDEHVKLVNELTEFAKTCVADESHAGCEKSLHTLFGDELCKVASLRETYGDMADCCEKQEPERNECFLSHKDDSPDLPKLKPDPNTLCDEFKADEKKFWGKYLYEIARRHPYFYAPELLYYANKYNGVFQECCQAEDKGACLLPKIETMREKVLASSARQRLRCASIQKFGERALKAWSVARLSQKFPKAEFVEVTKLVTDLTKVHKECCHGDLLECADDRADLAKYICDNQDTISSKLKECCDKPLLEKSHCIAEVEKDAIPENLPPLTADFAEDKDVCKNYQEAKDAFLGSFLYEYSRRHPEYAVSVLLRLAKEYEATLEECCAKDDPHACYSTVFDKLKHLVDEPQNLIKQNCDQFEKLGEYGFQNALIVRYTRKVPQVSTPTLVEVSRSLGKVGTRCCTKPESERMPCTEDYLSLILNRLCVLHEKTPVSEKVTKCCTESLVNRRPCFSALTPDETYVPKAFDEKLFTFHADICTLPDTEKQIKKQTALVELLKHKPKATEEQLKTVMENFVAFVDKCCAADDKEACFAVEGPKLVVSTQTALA

B1: PcOxP_DB04_G05 (scFv, V domains shown)
VH: EVQLLESGGGLVQPGGSLRLSCAASGFTFSDFYMEWVRQAPGKGLEWVAASRNKANDYTTEYADSVKGRFTISRDNSKNTLYLQMNSLRAEDTAVYYCARDFYGSSYWYFDVWGQGTLVTVSS
VL: DIVMTQSPDSLAVSLGERATINCTASESLYSSKHKVHYLAWYQQKPGQPPKLLIYGASNRYIGVPDRFSGSGSGTDFTLTISSLQAEDVAVYYCAQFYSYPLTFGGGTKVEIK
notes: scFv in periplasmic extract
Regarding B1, the OD450 in experiment [1] amounted to 0.05 OD450; in experiment [2], 0.05 OD450; with BSA, 0.07 OD450; in experiment [3] it was 1.67 OD450; in experiment [4], 1.2 OD450.

B2: PcOxP_DB02_F11 (scFv, V domains shown)
VH: EVQLLESGGGLVQPGGSLRLSCAASGTTFSDFYMEWVRQAPGKGLEWVAASRNKYNDYTTEYADSVKGRFTISRDNSKNTLYLQMNSLRAEDTAVYYCARDYYGSSYWYFDVWGQGTLVTVSS
VL: DIVMTQSPDSLAVSLGERATINCTASESLYSSKHKVHYLAWYQQKPGQPPKLLIYGASNRYPGVPDRFSGSGSGTDFTLTISSLQAEDVAVYYCAQFYSYPLTFGGGTKVEIK
notes: scFv in periplasmic extract
For B2, the OD450 in experiment [1] was found to be 0.04 OD450; in experiment [2] it was 0.04 OD450; in the experiment with BSA, 0.08 OD450; in experiment [3], 0.66 OD450; in experiment [4], 0.23 OD450.

B3: PcOxP_DB02_H08 (scFv, V domains shown)
VH: EVQLLESGGGLVQPGGSLRLSCAASGFTFSDAYMEWVRQAPGKGLEWVAASRNKANDYTTEYADSVKGRFTISRDNSKNTLYLQMNSLRAEDTAVYYCARDYYGSHYWYFDVWGQGTLVTVSS
VL: DIVMTQSPDSLAVSLGERATINCTSSQSLYSSKHNKHYLAWYQQKPGQPPKLLIYGASNRYIGVPDRFSGSGSGTDFTLTISSLQAEDVAVYYCAQFYSYPLTFGGGTKVEIK
notes: scFv in periplasmic extract
B3: the OD450 in experiment [1] was 0.06 OD450; in experiment [2], 0.04 OD450; in the experiment with BSA, 0.07 OD450; in experiment [3] it was 1.34 OD450; in experiment [4], 0.4 OD450.

B4: PcOxP_DB02_H07 (scFv, V domains shown)
VH: EVQLLESGGGLVQPGGSLRLSCAASGFTFSSYYMEWVRQAPGKGLEWVAASRNKANDYTTEYADSVKGRFTISRDNSKNTLYLQMNSLRAEDTAVYYCARDYYGSSYWYFDVWGQGTLVTVSS
VL: DIVMTQSPDSLAVSLGERATINCTASESLYSSKHKVHYLAWYQQKPGQPPKLLIYGASNRYNGVPDRFSGSGSGTDFTLTISSLQAEDVAVYYCAQFYTYPLTFGGGTKVEIK
notes: scFv in periplasmic extract
Regarding B4, the OD450 in experiment [1] was determined as 0.05 OD450; in experiment [2] it was 0.04 OD450; with BSA, 0.07 OD450; in experiment [3], 0.88 OD450; in experiment [4] it was 0.56 OD450.

B5: PcOxP_DB02_F04 (scFv, V domains shown)
VH: EVQLLESGGGLVQPGGSLRLSCAASGFTGSDFYMEWVRQAPGKGLEWVAASRNSGNSYTTAYADSVKGRFTISRDNSKNTLYLQMNSLRAEDTAVYYCARDYFGSSYWYFDVWGQGTLVTVSS
VL: DIVMTQSPDSLAVSLGERATINCTASESLYSSKHKVHYLAWYQQKPGQPPKLLIYGASNRYIGVPDRFSGSGSGTDFTLTISSLQAEDVAVYYCAQFYSYPLTFGGGTKVEIK
notes: scFv in periplasmic extract
Regarding B5, the OD450 was 0.05 OD450 in experiment [1]; 0.04 OD450 in experiment [2]; 0.09 OD450 with BSA; 0.74 OD450 in experiment [3]; 0.47 OD450 in experiment [4].

B6: PcOxP_DB02_F06 (scFv, V domains shown)
VH: EVQLLESGGGLVQPGGSLRLSCAASGFTFSDEYMEWVRQAPGKGLEWVAASRNKANDFTTEYADSVKGRFTISRDNSKNTLYLQMNSLRAEDTAVYYCARDFYGSSYWYFDVWGQGTLVTVSS
VL: DIVMTQSPDSLAVSLGERATINCTASESIYSSKHKVHYLAWYQQKPGQPPKLLIYGASNRYIGVPDRFSGSGSGTDFTLTISSLQAEDVAVYYCAQFYSYPLTFGGGTKVEIK
notes: scFv in periplasmic extract
On to B6, for which the OD450 came to 0.04 OD450 in experiment [1]; 0.04 OD450 in experiment [2]; 0.06 OD450 with BSA; 0.45 OD450 in experiment [3]; 0.16 OD450 in experiment [4].

B7: PcOxP_DB02_H04 (scFv, V domains shown)
VH: EVQLLESGGGLVQPGGSLRLSCAASGFTFSDEYMEWVRQAPGKGLEWVAASRNKANDYTTEYADSVKGRFTISRDNSKNTLYLQMNSLRAEDTAVYYCARDYYGSSYWYFDVWGQGTLVTVSS
VL: DIVMTQSPDSLAVSLGERATINCTASESLYSSKHKVVYLAWYQQKPGQPPKLLIYGASNRYIGVPDRFSGSGSGTDFTLTISSLQAEDVAVYYCAQFYFYPLTFGGGTKVEIK
notes: scFv in periplasmic extract
With B7, the OD450 in experiment [1] was determined as 0.04 OD450; in experiment [2] it was 0.05 OD450; with BSA, 0.06 OD450; in experiment [3], 0.2 OD450; in experiment [4], 0.22 OD450.

B8: PcOxP_DB02_H06 (scFv, V domains shown)
VH: EVQLLESGGGLVQPGGSLRLSCAASGFTFSDQYMEWVRQAPGKGLEWVAASRNKANDYTTEYADSVKGRFTISRDNSKNTLYLQMNSLRAEDTAVYYCARDYYGSSYWYFDVWGQGTLVTVSS
VL: DIVMTQSPDSLAVSLGERATINCTSSESLYSSKNKVNYLAWYQQKPGQPPKLLIYGASNRYIGVPDRFSGSGSGTDFTLTISSLQAEDVAVYYCAQFYFYPLTFGGGTKVEIK
notes: scFv in periplasmic extract
As for B8, the OD450 in experiment [1] amounted to 0.05 OD450; in experiment [2], 0.05 OD450; with BSA, 0.07 OD450; in experiment [3], 1.04 OD450; in experiment [4] it was 0.92 OD450.

B9: PcOxP_DB02_G04 (scFv, V domains shown)
VH: EVQLLESGGGLVQPGGSLRLSCAASGFTFSDYYMEWVRQAPGKGLEWVAASRWKANDYTTEYADSVKGRFTISRDNSKNTLYLQMNSLRAEDTAVYYCARDYYGSSYWYFDVWGQGTLVTVSS
VL: DIVMTQSPDSLAVSLGERATINCKASQSVLYSKNKKHYLAWYQQKPGQPPKLLIYGASNRQIGVPDRFSGSGSGTDFTLTISSLQAEDVAVYYCAQFYVYPLTFGGGTKVEIK
notes: scFv in periplasmic extract
Regarding B9, the OD450 in experiment [1] is 0.05 OD450; in experiment [2], 0.05 OD450; with BSA it was 0.11 OD450; in experiment [3], 0.7 OD450; in experiment [4], 0.32 OD450.

B10: PcOxP_DB02_H05 (scFv, V domains shown)
VH: EVQLLESGGGLVQPGGSLRLSCAASGFTFSDFYMEWVRQAPGKGLEWVAASRNKANDYTTEYADSVKGRFTISRDNSKNTLYLQMNSLRAEDTAVYYCARDYYGSSYWYFDPWGQGTLVTVSS
VL: DIVMTQSPDSLAVSLGERATINCTASESLYSSKHKVHYLAWYQQKPGQPPKLLIYGASNRYLGVPDRFSGSGSGTDFTLTISSLQAEDVAVYYCAQFYSYPLTFGGGTKVEIK
notes: scFv in periplasmic extract
B10: the OD450 in experiment [1] is 0.04 OD450; in experiment [2], 0.04 OD450; with BSA, 0.09 OD450; in experiment [3], 0.44 OD450; in experiment [4] it was 0.2 OD450.

B11: PcOxP_DB02_F10 (scFv, V domains shown)
VH: EVQLLESGGGLVQPGGSLRLSCAASGFTFSDQYMEWVRQAPGKGLEWVAASRNKANDYTTEYADSVKGRFTISRDNSKNTLYLQMNSLRAEDTAVYYCARDYYGSSYWYFDVWGQGTLVTVSS
VL: DIVMTQSPDSLAVSLGERATINCTSSQSVLSSKHNKNYLAWYQQKPGQPPKLLIYGASNRYWGVPDRFSGSGSGTDFTLTISSLQAEDVAVYYCAQFYSYPLTFGGGTKVEIK
notes: scFv in periplasmic extract
Regarding B11, the OD450 in experiment [1] amounted to 0.04 OD450; in experiment [2], 0.05 OD450; with BSA it was 0.09 OD450; in experiment [3], 1.2 OD450; in experiment [4] it was 0.51 OD450.

B12: PcOxP_DB02_G02 (scFv, V domains shown)
VH: EVQLLESGGGLVQPGGSLRLSCAASGFGFSDFYMEWVRQAPGKGLEWVAASRNKANDYTTEYADSVKGRFTISRDNSKNTLYLQMNSLRAEDTAVYYCARDYYGSSYWYFDVWGQGTLVTVSS
VL: DIVMTQSPDSLAVSLGERATINCTASESLYSSKHKVHYLAWYQQKPGQPPKLLIYGASNRYSGVPDRFSGSGSGTDFTLTISSLQAEDVAVYYCAQFYSYPLTFGGGTKVEIK
notes: scFv in periplasmic extract
For B12, the OD450 in experiment [1] amounted to 0.04 OD450; in experiment [2] it was 0.04 OD450; in the experiment with BSA it was 0.06 OD450; in experiment [3], 1.13 OD450; in experiment [4], 1.01 OD450.

B13: PcOxP_DB02_E12 (scFv, V domains shown)
VH: EVQLLESGGGLVQPGGSLRLSCAASGFGFSDFYMEWVRQAPGKGLEWVAASRNKANDYTTEYADSVKGRFTISRDNSKNTLYLQMNSLRAEDTAVYYCARDYYGSSYWYFDVWGQGTLVTVSS
VL: DIVMTQSPDSLAVSLGERATINCTASESLYSSKHKVHYLAWYQQKPGQPPKLLIYGASNRYIGVPDRFSGSGSGTDFTLTISSLQAEDVAVYYCAEFYSYPLTFGGGTKVEIK
notes: scFv in periplasmic extract
Turning to B13, the OD450 in experiment [1] worked out at 0.06 OD450; in experiment [2], 0.05 OD450; with BSA it was 0.06 OD450; in experiment [3], 0.58 OD450; in experiment [4], 0.26 OD450.

B14: PcOxP_DB02_G05 (scFv, V domains shown)
VH: EVQLLESGGGLVQPGGSLRLSCAASGFTFSDFYMEWVRQAPGKGLEWVAASRNKANDYTTEYADSVKGRFTISRDNSKNTLYLQMNSLRAEDTAVYYCARDYYGSSHWYFDVWGQGTLVTVSS
VL: DIVMTQSPDSLAVSLGERATINCTASESLYSSKHKLHYLAWYQQKPGQPPKLLIYGASNRYIGVPDRFSGSGSGTDFTLTISSLQAEDVAVYYCGQFYSYPLTFGGGTKVEIK
notes: scFv in periplasmic extract
As to B14, the OD450 in experiment [1] came to 0.07 OD450; in experiment [2] it was 0.05 OD450; with BSA, 0.11 OD450; in experiment [3], 1.8 OD450; in experiment [4] it was 1.49 OD450.

B15: PcOxP_DB02_F09 (scFv, V domains shown)
VH: EVQLLESGGGLVQPGGSLRLSCAASGFQFSDFYMEWVRQAPGKGLEWVAASRNKGNSYTTAYADSVKGRFTISRDNSKNTLYLQMNSLRAEDTAVYYCARDYYGSSYWYFDVWGQGTLVTVSS
VL: DIVMTQSPDSLAVSLGERATINCTASESLYSSKHKVHYLAWYQQKPGQPPKLLIYGASNRYSGVPDRFSGSGSGTDFTLTISSLQAEDVAVYYCAQFYSYPLTFGGGTKVEIK
notes: scFv in periplasmic extract
B15: the OD450 in experiment [1] stood at 0.04 OD450; in experiment [2], 0.04 OD450; with BSA, 0.08 OD450; in experiment [3], 0.93 OD450; in experiment [4], 0.39 OD450.
